In patent publication US20020012669A1:

Target: CRF2-4/zcytor11 heterodimeric receptor on BaF3/CRF2-4/zcytor11 cells (human) (UniProt Q8N6P7)
Experiment: cell-based or functional assay

Chain of CRF2-4/zcytor11 heterodimeric receptor on BaF3/CRF2-4/zcytor11 cells (human) (Q8N6P7 16-574 limits assumed, chain 1 of 2): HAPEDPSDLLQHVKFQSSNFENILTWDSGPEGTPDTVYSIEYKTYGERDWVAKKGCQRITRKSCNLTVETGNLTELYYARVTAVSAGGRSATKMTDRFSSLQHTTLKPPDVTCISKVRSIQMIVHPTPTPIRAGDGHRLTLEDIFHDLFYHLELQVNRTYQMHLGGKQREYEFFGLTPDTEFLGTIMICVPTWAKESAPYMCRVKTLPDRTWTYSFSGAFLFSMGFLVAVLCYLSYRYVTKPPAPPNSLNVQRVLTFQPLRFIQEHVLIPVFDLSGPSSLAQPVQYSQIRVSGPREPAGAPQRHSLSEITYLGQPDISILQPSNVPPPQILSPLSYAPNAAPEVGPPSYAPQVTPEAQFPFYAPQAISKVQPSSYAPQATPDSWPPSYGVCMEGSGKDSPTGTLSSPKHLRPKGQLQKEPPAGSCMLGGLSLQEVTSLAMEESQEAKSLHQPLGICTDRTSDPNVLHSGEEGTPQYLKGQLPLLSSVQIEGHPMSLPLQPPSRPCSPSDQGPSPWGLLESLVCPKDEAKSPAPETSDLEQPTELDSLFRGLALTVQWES
Chain of CRF2-4/zcytor11 heterodimeric receptor on BaF3/CRF2-4/zcytor11 cells (human) (Q08334 20-325 limits assumed, chain 2 of 2, further chain): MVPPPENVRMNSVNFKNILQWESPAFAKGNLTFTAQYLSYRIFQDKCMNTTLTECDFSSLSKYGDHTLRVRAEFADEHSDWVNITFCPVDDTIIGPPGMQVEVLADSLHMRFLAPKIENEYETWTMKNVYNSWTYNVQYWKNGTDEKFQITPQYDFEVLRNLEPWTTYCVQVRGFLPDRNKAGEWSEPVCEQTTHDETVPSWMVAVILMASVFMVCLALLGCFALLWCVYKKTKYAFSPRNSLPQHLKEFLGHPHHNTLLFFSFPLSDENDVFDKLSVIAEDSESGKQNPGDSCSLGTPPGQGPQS

IL-TIF-CEE (human IL-TIF with C-terminal Glu-Glu tag) (from UniProt Q9GZX6 34-179) (ligand)
Alamar Blue proliferation of BaF3/CRF2-4/zcytor11 cells, IL-TIF-CEE at 0.06 ng/ml (fold induction): 2 | Alamar Blue proliferation of BaF3/CRF2-4/zcytor11 cells, IL-TIF-CEE at 50 ng/ml (fold over background): 15
